Measured values reported in the RNAGym collection of RNA variant scans (doi:10.1021/acssynbio.7b00057).

B1: Pistol ribozyme (parent)
chain: GGGUCGUUGUUCCAUAAUCGCGUGGAUAUGGCACGCAAGUUUCUACCGGGCACCGUAAAUGUCCGACUGGAGCCGUUCGGGCGGCUAUAAACAGACCUCAGGCCCGAAGCGUGGCGGCACCUGCCGCCGGUGGUAAAAAAGAUCGGAAGAGCACACGUCU

Variants of: B1
Assay: aptazyme ON/OFF ratio, guanine; higher = stronger switching; co-transcriptional cleavage with and without guanine

Point of comparison: GGGUCGUCAAGAGAUAAUCGCGUGGAUAUGGCACGCAAGUUUCUACCGGGCACCGUAAAUGUCCGACUGGAGCCGUUCGGGCGGCUAUAAACAGACCUCAGGCCCGAAGCGUGGCGGCACCUGCCGCCGGUGGUAAAAAAGAUCGGAAGAGCACACGUCU [U8C G9A U10A U11G C12A C13G], “aptazyme ON/OFF ratio” value 1.17. Against it:
- GGGUCGUCAAAUUAUAAUCGCGUGGAUAUGGCACGCAAGUUUCUACCGGGCACCGUAAAUGUCCGACUGGAGCCGUUCGGGCGGCUAUAAACAGACCUCAGGCCCGAAGCGUGGCGGCACCUGCCGCCGGUGGUAAAAAAGAUCGGAAGAGCACACGUCU [U8C G9A U10A U11A C12U C13U] — higher, 1.19
- GGGUCGUCAAAUAAUAAUCGCGUGGAUAUGGCACGCAAGUUUCUACCGGGCACCGUAAAUGUCCGACUGGAGCCGUUCGGGCGGCUAUAAACAGACCUCAGGCCCGAAGCGUGGCGGCACCUGCCGCCGGUGGUAAAAAAGAUCGGAAGAGCACACGUCU [U8C G9A U10A U11A C12U C13A] — higher, 1.28
- GGGUCGUCAAAUGAUAAUCGCGUGGAUAUGGCACGCAAGUUUCUACCGGGCACCGUAAAUGUCCGACUGGAGCCGUUCGGGCGGCUAUAAACAGACCUCAGGCCCGAAGCGUGGCGGCACCUGCCGCCGGUGGUAAAAAAGAUCGGAAGAGCACACGUCU [U8C G9A U10A U11A C12U C13G] — higher, 1.18
- GGGUCGUCAAGGGAUAAUCGCGUGGAUAUGGCACGCAAGUUUCUACCGGGCACCGUAAAUGUCCGACUGGAGCCGUUCGGGCGGCUAUAAACAGACCUCAGGCCCGAAGCGUGGCGGCACCUGCCGCCGGUGGUAAAAAAGAUCGGAAGAGCACACGUCU [U8C G9A U10A U11G C12G C13G] — the same, 1.17
- GGGUCGUCAAGGAAUAAUCGCGUGGAUAUGGCACGCAAGUUUCUACCGGGCACCGUAAAUGUCCGACUGGAGCCGUUCGGGCGGCUAUAAACAGACCUCAGGCCCGAAGCGUGGCGGCACCUGCCGCCGGUGGUAAAAAAGAUCGGAAGAGCACACGUCU [U8C G9A U10A U11G C12G C13A] — lower, 1.16
- GGGUCGUCAACACAUAAUCGCGUGGAUAUGGCACGCAAGUUUCUACCGGGCACCGUAAAUGUCCGACUGGAGCCGUUCGGGCGGCUAUAAACAGACCUCAGGCCCGAAGCGUGGCGGCACCUGCCGCCGGUGGUAAAAAAGAUCGGAAGAGCACACGUCU [U8C G9A U10A U11C C12A] — higher, 1.25
- GGGUCGUCAACUCAUAAUCGCGUGGAUAUGGCACGCAAGUUUCUACCGGGCACCGUAAAUGUCCGACUGGAGCCGUUCGGGCGGCUAUAAACAGACCUCAGGCCCGAAGCGUGGCGGCACCUGCCGCCGGUGGUAAAAAAGAUCGGAAGAGCACACGUCU [U8C G9A U10A U11C C12U] — lower, 1.09
- GGGUCGUCAACGCAUAAUCGCGUGGAUAUGGCACGCAAGUUUCUACCGGGCACCGUAAAUGUCCGACUGGAGCCGUUCGGGCGGCUAUAAACAGACCUCAGGCCCGAAGCGUGGCGGCACCUGCCGCCGGUGGUAAAAAAGAUCGGAAGAGCACACGUCU [U8C G9A U10A U11C C12G] — higher, 1.29
- GGGUCGUCAACCCAUAAUCGCGUGGAUAUGGCACGCAAGUUUCUACCGGGCACCGUAAAUGUCCGACUGGAGCCGUUCGGGCGGCUAUAAACAGACCUCAGGCCCGAAGCGUGGCGGCACCUGCCGCCGGUGGUAAAAAAGAUCGGAAGAGCACACGUCU [U8C G9A U10A U11C] — lower, 1.05
- GGGUCGUCAAGCCAUAAUCGCGUGGAUAUGGCACGCAAGUUUCUACCGGGCACCGUAAAUGUCCGACUGGAGCCGUUCGGGCGGCUAUAAACAGACCUCAGGCCCGAAGCGUGGCGGCACCUGCCGCCGGUGGUAAAAAAGAUCGGAAGAGCACACGUCU [U8C G9A U10A U11G] — higher, 1.45
- GGGUCGUCAAGGCAUAAUCGCGUGGAUAUGGCACGCAAGUUUCUACCGGGCACCGUAAAUGUCCGACUGGAGCCGUUCGGGCGGCUAUAAACAGACCUCAGGCCCGAAGCGUGGCGGCACCUGCCGCCGGUGGUAAAAAAGAUCGGAAGAGCACACGUCU [U8C G9A U10A U11G C12G] — lower, 1.12
- GGGUCGUCAAGACAUAAUCGCGUGGAUAUGGCACGCAAGUUUCUACCGGGCACCGUAAAUGUCCGACUGGAGCCGUUCGGGCGGCUAUAAACAGACCUCAGGCCCGAAGCGUGGCGGCACCUGCCGCCGGUGGUAAAAAAGAUCGGAAGAGCACACGUCU [U8C G9A U10A U11G C12A] — lower, 1.04
- GGGUCGUCAAGAAAUAAUCGCGUGGAUAUGGCACGCAAGUUUCUACCGGGCACCGUAAAUGUCCGACUGGAGCCGUUCGGGCGGCUAUAAACAGACCUCAGGCCCGAAGCGUGGCGGCACCUGCCGCCGGUGGUAAAAAAGAUCGGAAGAGCACACGUCU [U8C G9A U10A U11G C12A C13A] — lower, 1.1
- GGGUCGUCAAGAUAUAAUCGCGUGGAUAUGGCACGCAAGUUUCUACCGGGCACCGUAAAUGUCCGACUGGAGCCGUUCGGGCGGCUAUAAACAGACCUCAGGCCCGAAGCGUGGCGGCACCUGCCGCCGGUGGUAAAAAAGAUCGGAAGAGCACACGUCU [U8C G9A U10A U11G C12A C13U] — lower, 1.11
- GGGUCGUCAACAAAUAAUCGCGUGGAUAUGGCACGCAAGUUUCUACCGGGCACCGUAAAUGUCCGACUGGAGCCGUUCGGGCGGCUAUAAACAGACCUCAGGCCCGAAGCGUGGCGGCACCUGCCGCCGGUGGUAAAAAAGAUCGGAAGAGCACACGUCU [U8C G9A U10A U11C C12A C13A] — the same, 1.17
- GGGUCGUCAACAUAUAAUCGCGUGGAUAUGGCACGCAAGUUUCUACCGGGCACCGUAAAUGUCCGACUGGAGCCGUUCGGGCGGCUAUAAACAGACCUCAGGCCCGAAGCGUGGCGGCACCUGCCGCCGGUGGUAAAAAAGAUCGGAAGAGCACACGUCU [U8C G9A U10A U11C C12A C13U] — higher, 1.19
- GGGUCGUCAACAGAUAAUCGCGUGGAUAUGGCACGCAAGUUUCUACCGGGCACCGUAAAUGUCCGACUGGAGCCGUUCGGGCGGCUAUAAACAGACCUCAGGCCCGAAGCGUGGCGGCACCUGCCGCCGGUGGUAAAAAAGAUCGGAAGAGCACACGUCU [U8C G9A U10A U11C C12A C13G] — higher, 1.18
